Measured values: US20200216522A1 (DENALI THERAPEUTICS, published 2020)

Assays:
Experiment in all cases: peptide array
Peptide_006 = biological target: T1, Peptide_006 (human)
T1 peptide: QGGYTMHQDQEGDTD
Procedure: (§1) Chimeric IgG antibodies were diluted to a concentration of 5 μg/mL in 3% bovine serum albumin in Tris-buffered saline (10 mM Tris, pH 7.5, 150 mM NaCl) supplemented with 0.05% Tween®20 (3% BSA-TBST). Diluted antibodies were allowed to bind to peptides printed onto slides for 2 hours at room temperature as described in the PepStar™ user manual (JPT Technologies). Following extensive washing (5×5 minutes with TBST), slides were incubated with secondary antibodies goat anti-human IgG, Alexa Fluor 568 conjugate, 1 μg/mL in 3% BSA-TBST) for 1 hour at room temperature. After extensive washing, (5×5 minutes with TBST, then 5×5 minutes with ultrapure water), slides were dried overnight and imaged using an Opera Phenix™ system in the 568 nm channel. Images were aligned to peptide array definition files using Galviewer software obtained from JPT Technologies and ImageJ software with control human IgG serving as landmarks.
(§2) Full-length human Tau (encoded by the microtubule-associated protein Tau isoform 2 gene (MAPT), amino acid sequence NCBI Reference Sequence No. NP_005901.2, SEQ ID NO: 1, variant designation “2N4R”) was divided into 15 amino acid peptides, offset by 5 amino acids (overlapping by 10 amino acids). Peptides were synthesized and covalently attached to silica slides in triplicate with a spot size of 0.5 mm (obtained from JPT Technologies, Berlin, Germany). Antibodies muIgG were diluted to a concentration of 30 μg/mL in 3% bovine serum albumin in Tris-buffered saline (10 mM Tris, pH 7.5, 150 mM NaCl) supplemented with 0.05% Tween® 20 (3% BSA-TBST). Diluted antibodies were allowed to bind to peptides printed onto slides for 2 hours at room temperature as described in the Pepstar™ user manual (JPT Technologies). Following extensive washing (5×5 min TBST), slides were incubated with secondary antibodies (donkey anti-mouse IgG, Alexafluor 647 conjugate, 5 μg/mL in 3% BSA-TBST) for 1 hour at room temperature. After extensive washing, (5×5 minutes TBST, 5×5 minutes ultrapure water), slides were dried under a stream of nitrogen and imaged on the Opera Phenix in the 647 nm channel. Images were aligned to peptide array definition file using Galviewer software obtained from JPT Technologies and ImageJ software with control mouse IgG serving as landmarks.

Peptide_002 = biological target: T2, Peptide_002 (human)
T2 peptide: QEFEVMEDHAGTYGL
Procedure: as §1, §2

Peptide_054 = biological target: T3, Peptide_054 (human)
T3 peptide: LKHQPGGGKVQIINK
Procedure: as §1, §2

Peptide_076 = biological target: T4, Peptide_076 (human)
T4 peptide: LTFRENAKAKTDHGA
Procedure: as §1, §2

Peptide_027 = biological target: T5, Peptide_027 (human)
T5 peptide: SKDGTGSDDKKAKGA
Procedure: as §1, §2

Peptide_029 = biological target: T6, Peptide_029 (human)
T6 peptide: KAKGADGKTKIATPR
Procedure: as §1, §2

Peptide_022 = biological target: T7, Peptide_022 (human)
T7 peptide: AGIGDTPSLEDEAAG
Procedure: as §1, §2

Peptide_044 = biological target: T8, Peptide_044 (human)
T8 peptide: PTPPTREPKKVAVVR
Procedure: as §1, §2

Peptide_082 = biological target: T9, Peptide_082 (human)
T9 peptide: RHLSNVSSTGSIDMV
Procedure: as §1, §2

Peptide_040 = biological target: T10, Peptide_040 (human)
T10 peptide: GYSSPGSPGTPGSRS
Procedure: as §1, §2

Peptide_051 = biological target: T11, Peptide_051 (human)
T11 peptide: PDLKNVKSKIGSTEN
Procedure: as §1, §2

Peptide_070 = biological target: T12, Peptide_070 (human)
T12 peptide: FKDRVQSKIGSLDNI
Procedure: as §1, §2

Peptide_042 = biological target: T13, Peptide_042 (human)
T13 peptide: PGSRSRTPSLPTPPT
Procedure: as §1, §2

Peptide_043 = biological target: T14, Peptide_043 (human)
T14 peptide: RTPSLPTPPTREPKK
Procedure: as §1, §2

Peptide_087 = biological target: T15, Peptide_087 (human)
T15 peptide: TLADEVSASLAKQGL
Procedure: as §1, §2

Peptide_084 = biological target: T16, Peptide_084 (human)
T16 peptide: SIDMVDSPQLATLAD
Procedure: as §1, §2

Peptide_004 = biological target: T17, Peptide_004 (human)
T17 peptide: GTYGLGDRKDQGGYT
Procedure: as §1, §2

Peptide_010 = biological target: T18, Peptide_010 (human)
T18 peptide: SPLQTPTEDGSEEPG
Procedure: as §1, §2

Peptide_023 = biological target: T19, Peptide_023 (human)
T19 peptide: TPSLEDEAAGHVTQA
Procedure: as §1, §2

Peptide_015 = biological target: T20, Peptide_015 (human)
T20 peptide: TAEDVTAPLVDEGAP
Procedure: as §1, §2

process-control peptide = biological target: T21, process-control peptide
T21 construct: array control, not a Tau peptide
T21 peptide: GGSGGGSDYKDDDDK
Procedure: as §1, §2

Peptide_007 = biological target: T22, Peptide_007 (human)
T22 peptide: MHQDQEGDTDAGLKE
Procedure: as §1, §2

Peptide_021 = biological target: T23, Peptide_021 (human)
T23 peptide: TTAEEAGIGDTPSLE
Procedure: as §1, §2

Peptide_056 = biological target: T24, Peptide_056 (human)
T24 peptide: QIINKKLDLSNVQSK
Procedure: as §1, §2

Peptide_035 = biological target: T25, Peptide_035 (human)
T25 peptide: IPAKTPPAPKTPPSS
Procedure: as §1, §2

Peptide_085 = biological target: T26, Peptide_085 (human)
T26 peptide: DSPQLATLADEVSAS
Procedure: as §1, §2

Peptide_003 = biological target: T27, Peptide_003 (human)
T27 peptide: MEDHAGTYGLGDRKD
Procedure: as §1, §2

Peptide_048 = biological target: T28, Peptide_048 (human)
T28 peptide: PSSAKSRLQTAPVPM
Procedure: as §1, §2

Peptide_032 = biological target: T29, Peptide_032 (human)
T29 peptide: GAAPPGQKGQANATR
Procedure: as §1, §2

Peptide_039 = biological target: T30, Peptide_039 (human)
T30 peptide: SGDRSGYSSPGSPGT
Procedure: as §1, §2

Peptide_064 = biological target: T31, Peptide_064 (human)
T31 peptide: SKVTSKCGSLGNIHH
Procedure: as §1, §2

Peptide_041 = biological target: T32, Peptide_041 (human)
T32 peptide: GSPGTPGSRSRTPSL
Procedure: as §1, §2

Peptide_012 = biological target: T33, Peptide_012 (human)
T33 peptide: SEEPGSETSDAKSTP
Procedure: as §1, §2

Peptide_025 = biological target: T34, Peptide_025 (human)
T34 peptide: HVTQARMVSKSKDGT
Procedure: as §1, §2

Peptide_077 = biological target: T35, Peptide_077 (human)
T35 peptide: NAKAKTDHGAEIVYK
Procedure: as §1, §2

B1: chimeric IgG clone 1A5 (antibody, V domains shown)
VH: EVQLQQSGAELVRPGASVKLSCTASGFNIKDSLIHWVKQRPEQGLEWIGWIDPEDGETKYAPKFQDKATKTADTSSNTAYLQLSSLTSEDTAIYYCASGEWDYWGQGTSVTVSS
VL: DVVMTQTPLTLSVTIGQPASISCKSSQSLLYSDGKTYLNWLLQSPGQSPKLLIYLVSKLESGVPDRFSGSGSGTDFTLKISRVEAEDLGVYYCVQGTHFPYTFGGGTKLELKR
notes: mouse-human chimeric IgG from HEK293
binding result (Peptide_006): no binding (tested: 5 ug/mL)
binding result (Peptide_002): no binding (tested: 5 ug/mL)
binding result (Peptide_054): no binding (tested: 5 ug/mL)
binding result (Peptide_076): no binding (tested: 5 ug/mL)
binding result (Peptide_027): no binding (tested: 5 ug/mL)
binding result (Peptide_029): no binding (tested: 5 ug/mL)
binding result (Peptide_022): no binding (tested: 5 ug/mL)
binding result (Peptide_044): no binding (tested: 5 ug/mL)
binding result (Peptide_082): no binding (tested: 5 ug/mL)
binding result (Peptide_040): no binding (tested: 5 ug/mL)
binding result (Peptide_051): binds
binding result (Peptide_070): binds
binding result (Peptide_042): no binding (tested: 5 ug/mL)
binding result (Peptide_043): no binding (tested: 5 ug/mL)
binding result (Peptide_087): no binding (tested: 5 ug/mL)
binding result (Peptide_084): no binding (tested: 5 ug/mL)
binding result (Peptide_004): no binding (tested: 5 ug/mL)
binding result (Peptide_010): no binding (tested: 5 ug/mL)
binding result (Peptide_023): no binding (tested: 5 ug/mL)
binding result (Peptide_015): no binding (tested: 5 ug/mL)
binding result (process-control peptide): no binding (tested: 5 ug/mL)
binding result (Peptide_007): no binding (tested: 5 ug/mL)
binding result (Peptide_021): no binding (tested: 5 ug/mL)
binding result (Peptide_056): no binding (tested: 5 ug/mL)
binding result (Peptide_035): no binding (tested: 5 ug/mL)
binding result (Peptide_085): no binding (tested: 5 ug/mL)
binding result (Peptide_003): no binding (tested: 5 ug/mL)
binding result (Peptide_048): no binding (tested: 5 ug/mL)
binding result (Peptide_032): no binding (tested: 5 ug/mL)
binding result (Peptide_039): no binding (tested: 5 ug/mL)
binding result (Peptide_064): no binding (tested: 5 ug/mL)
binding result (Peptide_041): no binding (tested: 5 ug/mL)
binding result (Peptide_012): no binding (tested: 5 ug/mL)
binding result (Peptide_025): no binding (tested: 5 ug/mL)
binding result (Peptide_077): no binding (tested: 5 ug/mL)
